T1: human Lck (residues 62-128) SH3 domain-GST fusion (human), P06239
T1 chain: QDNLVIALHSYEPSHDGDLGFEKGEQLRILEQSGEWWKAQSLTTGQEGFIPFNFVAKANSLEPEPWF


Columns and labels:
[1] = molecular target: Down-regulated Hck kinase (containing an N-terminal His6 tag); test: cell-based or functional assay
[2] = molecular target: T1, human Lck (residues 62-128) SH3 …; test: fluorescence polarization, 50 nM labeled peptide, SH3-GST titrated
[3] = molecular target: human Lyn (residues 62-122) SH3 domain-GST fusion protein (human), P07948; test: as above
human Lyn (residues 62-122) SH3 domain-GST fusion protein (human), P07948, sequence (P07948 62-122): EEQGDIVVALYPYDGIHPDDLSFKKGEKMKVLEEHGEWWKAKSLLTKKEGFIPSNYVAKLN

[4] = molecular target: human Fyn (residues 81-142) SH3 domain-GST fusion protein (human), P06241; test: as above
human Fyn (residues 81-142) SH3 domain-GST fusion protein (human), P06241, sequence (P06241 81-142): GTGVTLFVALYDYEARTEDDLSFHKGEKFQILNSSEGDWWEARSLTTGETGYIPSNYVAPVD

Binder	Activity (nmol · sec^-1), activator at 50 micromolar (nmol · sec^-1) [1]	Fold-Activation, activator at 50 micromolar [1]	Kact (concentration of activator at half-maximal activation) [1]	Kd [2]	Kd [3]	Kd [4]
APPLPPRNRGDDAPVEDLIRFYDNLQQYLNVVTRHRY (designed binder) [PP2]	139	13 fold	48 µM			
APPLPPRNPGDDAPVEDLIRFYDNLQQYLNVVTRHRY (designed binder) [PP1]	83.6	8 fold				

Next, values leading:

Activity (nmol · sec^-1), activator at 50 micromolar (nmol · sec^-1) [1]	Fold-Activation, activator at 50 micromolar [1]	Kact (concentration of activator at half-maximal activation) [1]	Kd [2]	Kd [3]	Kd [4]	Binder
83.9	7 fold	48 µM				APPLPPRNRPRDAPVEDLIRFYDNLQQYLNVVTRHRY (designed binder) [PP3]
			> 20000 nM	2000 nM	1400 nM	CGGAPPLPPRNRPR (modifications not checked) [^Flu1, fluorescently labeled analog of Peptide 1]

Source: US20100273722A1, “MODIFIED MINIATURE PROTEINS” (Yale University, priority 2007, published 2010)
